The test system of the data set is RplI (ribosomal large subunit protein L9) (Pseudomonas aeruginosa mPAO1). In words: MST.

Data on one substance can be found in paper PMC8730436.

pKd: −log10 of the molar value.

The pKd is the Kd on a negative log10 scale, so that one unit is a factor of ten. High values mean a low Kd, low ones a high Kd.

The substance -24 nt-exsA RNA showed a pKd of 6.28.
